Test results: publication doi:10.1101/2025.06.10.658938 (bioRxiv, 2025)

Tests used:
Assay in all cases: split reporter
[1] = biological target: sphingosine 1-phosphate receptor 1 (S1PR1), smBit-tagged Target construct (UniProt P21453 1-347)
[2] = biological target: T1, calcitonin-like receptor (CLR), smBit-tagged Target construct (UniProt Q16602 23-461)
[3] = biological target: T1, calcitonin-like receptor (CLR), …; remark: listed apart in the source

T1 sequence (Q16602 23-461): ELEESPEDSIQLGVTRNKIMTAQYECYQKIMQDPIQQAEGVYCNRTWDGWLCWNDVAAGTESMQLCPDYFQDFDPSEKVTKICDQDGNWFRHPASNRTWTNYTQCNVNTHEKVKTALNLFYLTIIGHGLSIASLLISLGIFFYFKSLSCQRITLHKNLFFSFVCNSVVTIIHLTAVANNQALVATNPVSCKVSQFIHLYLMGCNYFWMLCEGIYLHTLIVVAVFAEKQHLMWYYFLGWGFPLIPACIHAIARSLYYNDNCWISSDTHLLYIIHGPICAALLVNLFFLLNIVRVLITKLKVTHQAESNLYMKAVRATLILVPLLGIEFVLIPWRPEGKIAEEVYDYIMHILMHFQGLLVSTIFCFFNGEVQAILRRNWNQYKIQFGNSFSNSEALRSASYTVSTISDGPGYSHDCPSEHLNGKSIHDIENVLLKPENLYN
sphingosine 1-phosphate receptor 1 (S1PR1), smBit-tagged Target construct, sequence (P21453 1-347): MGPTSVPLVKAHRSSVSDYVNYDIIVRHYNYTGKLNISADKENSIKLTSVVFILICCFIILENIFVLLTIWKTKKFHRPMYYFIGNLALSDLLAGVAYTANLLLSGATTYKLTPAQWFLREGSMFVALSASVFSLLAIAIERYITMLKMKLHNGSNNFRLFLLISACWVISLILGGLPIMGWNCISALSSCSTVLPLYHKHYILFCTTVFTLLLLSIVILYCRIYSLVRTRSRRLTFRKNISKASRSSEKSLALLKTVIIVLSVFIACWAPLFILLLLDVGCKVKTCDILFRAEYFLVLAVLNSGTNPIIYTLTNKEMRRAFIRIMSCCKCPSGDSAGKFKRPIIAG

B1: CD69 V48F, V49F double mutant, LgBit-tagged Binder construct (natural protein)
chain: SENCFVAENSSLHPESGQENDATSPHFSTRHEGSFQVPVLCAVMNFFFITILIIALIALSVGQYNCPGQYTFSMPSDSHVSSCSEDWVGYQRKCYFISTVKRSWTSAQNACSEHGATLAVIDSEKDMNFLKRYAGREEHWVGLKKEPGHPWKWSNGKEFNNWFNVTGSDKCVFLKNTEVSSMECEKNLYWICNKPYK
percent decrease of expression-normalised NanoBit relative to WT CD69 [1]: 30%

B2: receptor activity-modifying protein 1 (RAMP1), LgBit-tagged Binder construct (natural protein)
chain: CQEANYGALLRELCLTQFQVDMEAVGETLWCDWGRTIRSYRELADCTWHMAEKLGCFWPNAEVDRFFLAVHGRYFRSCPISGRAVRDPPGSILYPFIVVPITVTLLVTALVVWQSKRTEGIV
fold change of NanoBit luminescence over CLR+CD8a (1 ng Binder DNA) [2]: 13 ± 1.45 fold
fold change of NanoBit luminescence over CLR+CD8a (20 ng Binder DNA) [2]: 2.16 ± 0.04 fold
fold change of expression-normalised NanoBit over CLR+CD8a (1 ng Binder DNA) [3]: 2.7 ± 0.2 fold
fold change of expression-normalised NanoBit over CLR+CD8a (5 ng Binder DNA) [3]: 2.9 ± 0.1 fold
fold change of expression-normalised NanoBit over CLR+CD8a (10 ng Binder DNA) [3]: 2.7 ± 0.1 fold
fold change of expression-normalised NanoBit over CLR+CD8a (20 ng Binder DNA) [3]: 2.1 ± 0.1 fold

LYPFIVVPITVTLLVTALVVWQSKRTEGIV (domain or fragment, UniProt O60894 119-148, looked up) [HALO-RAMP1-TM, LgBit-tagged Binder chimera]
fold reduction of expression-normalised NanoBit relative to WT CLR-RAMP1 [3]: 2 fold

LYPFIVVPITVTLLVTALVVWQSKRTEGIV (domain or fragment, UniProt O60894 119-148, looked up) [InnTag5-RAMP1-TM, LgBit-tagged Binder chimera]
fold reduction of expression-normalised NanoBit relative to WT CLR-RAMP1 [3]: 2 fold
